Measurements reported in the supplement of paper PMC9170038.

How the values were obtained:
MS2 coat protein [1] = assay: apparent KD of MS2 coat protein, switch ON state; designed switch direction (-1 OFF switch, 1 ON switch): -1; higher = weaker reporter binding; conditions: FMN input: 0 or 200 uM; Eterna round: R93 (includes R88 designs)
Method in brief: (§1)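 Each design's apparent KD comes from the median of binding-curve fits to its normalised clusters. Those clusters carried RNA switches transcribed on-chip from Illumina sequencing clusters. SNAP-549-labelled MS2 coat protein was titrated onto them in twofold steps (0.7 or 1.5 nM to 3 µM; per step 0.8–1.5 h down to 10–20 min). Conditions were 100 mM Tris-HCl pH 7.5, 80 mM KCl, 4 mM MgCl2, without or with constant ligand.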

MS2 coat protein [2] = assay: apparent KD of MS2 coat protein, switch OFF state (with FMN for OFF switches, without FMN for ON switches); designed switch direction (-1 OFF switch, 1 ON switch): -1; higher = weaker reporter binding; conditions: FMN input: 0 or 200 uM; Eterna round: R93 (includes R88 designs)
Method in brief: as §1

AAAAAUGGAGGAUAUACAUGAGGAUCACCCAUGUGUAACUAUACUAAGCGCUCCUCAGGUAGAAGGCCAAAAAA [Gilly Gone Silly 15 - Jieux - Exclusion 3]
apparent KD of MS2 coat protein (MS2 coat protein [1]): 70.9 nM
apparent KD of MS2 coat protein (MS2 coat protein [2]): 48 nM

AGCAAGUAAGGAUAUGCAAAGUCAGGACACACACUGACGAAGCAGAAGGUACAUGAGGAUCACCCAUGUAAGCA [Mat - Exaclusion 4 - Eli mod - D61]
apparent KD of MS2 coat protein (MS2 coat protein [1]): 25.6 nM
apparent KD of MS2 coat protein (MS2 coat protein [2]): 18 nM

AGAAAGUCAGGAUAUACGAAUAAGAAUAAAGACGAGAACGGACAUGAGGAUCACCCAUGUAGAAGGGACAAGAA [Diamond 16]
apparent KD of MS2 coat protein (MS2 coat protein [1]): 51.6 nM
apparent KD of MS2 coat protein (MS2 coat protein [2]): 21.8 nM

AUAAAACAUGAGGAUCACCCAUGUGAGGAUAUCCAAAAAGAAAGAAAAAAAAAAAAAAGGAGAAGGCACAAUAA [Amethyst 46]
apparent KD of MS2 coat protein (MS2 coat protein [1]): 67.6 nM
apparent KD of MS2 coat protein (MS2 coat protein [2]): 46.7 nM

AAGACUAGAGGAUAUACAUGAGGAUCACCCAUGUAACUGUCAGGUGACUGACGGAGAAGUAGAAGGCUAGUCAA [Mat - Exclusion 3 - JL mod - D83]
apparent KD of MS2 coat protein (MS2 coat protein [1]): 14.6 nM
apparent KD of MS2 coat protein (MS2 coat protein [2]): 19.9 nM

AGGCUCCUAGGAUAUACUGGCUGGCCUCCACAAAAGAAAAUACAUGAGGAUCACCCAUGUAGAAGGAGGAGUGG [Geesar]
apparent KD of MS2 coat protein (MS2 coat protein [1]): 19.3 nM
apparent KD of MS2 coat protein (MS2 coat protein [2]): 22.7 nM

AGGUACCUAGGAUAUACAUGAGGAUCACCCAUGUCACAAAUAAAACACAGGUAUCCUGGUAGAAGGAGGAACAA [Veinle]
apparent KD of MS2 coat protein (MS2 coat protein [1]): 24.1 nM
apparent KD of MS2 coat protein (MS2 coat protein [2]): 36.5 nM

AAAUUGUCAGGAUAUCUGGAUAGGAAAAAGAAAACCUAUCCAGAGAAGGGACAUGAGGAUCACCCAUGUAAAAA [JL cataway mod 1]
apparent KD of MS2 coat protein (MS2 coat protein [1]): 81.1 nM
apparent KD of MS2 coat protein (MS2 coat protein [2]): 107 nM

CACGGACAUGAGGAUCACCCAUGUGAGGAUAUGCUCUACGAACGUUUUCCCACGAGAAGCAGAAGGCACAUUUC [try 2]
apparent KD of MS2 coat protein (MS2 coat protein [1]): 42.6 nM
apparent KD of MS2 coat protein (MS2 coat protein [2]): 90.8 nM

UAGAACCUAGGAUAUACUUGGACCACUAAUUUACAGAUAUAACAUGAGGAUCACCCAUGUAGAAGGAGGAGUAA [JR_Exc002_Sub202]
apparent KD of MS2 coat protein (MS2 coat protein [1]): 36.8 nM
apparent KD of MS2 coat protein (MS2 coat protein [2]): 25.7 nM

AGCUAGUCAGGAUAUACGAAAAUGUCAGAAGCUGAGAAGGGACAUGAGGAUCACCCAUGUAGAAGGGACUAGCA [Diamond 37]
apparent KD of MS2 coat protein (MS2 coat protein [1]): 70.2 nM
apparent KD of MS2 coat protein (MS2 coat protein [2]): 316 nM

AAGAACACAGGAUAUACAUGAGGAUCACCCAUGUAAAAGAAAGAAAGGGAAAAGAAAAGUAGAAGGGUGAAGAA [Aakheperre Pasebakhenniut I]
apparent KD of MS2 coat protein (MS2 coat protein [1]): 40 nM
apparent KD of MS2 coat protein (MS2 coat protein [2]): 72.6 nM

AGGCAGACAGGAUAUACUUGGGCAGCCAAUAUAAUAAUAUAACAUGAGGAUCACCCAUGUAGAAGGGUCAGAAA [JR_Exc002_Sub209]
apparent KD of MS2 coat protein (MS2 coat protein [1]): 62.6 nM
apparent KD of MS2 coat protein (MS2 coat protein [2]): 86.7 nM

AAGUAGGUAGGAUAUGCAUAGAUAUAUAUUCAUGUGGAACUACAUGAGGAUCACCCAUGUAGAAGGACCUAAUA [AJ 42]
apparent KD of MS2 coat protein (MS2 coat protein [1]): 18.1 nM
apparent KD of MS2 coat protein (MS2 coat protein [2]): 17.1 nM

AACAUGUCAGGAUAUGUAAAAAAAAAAAAAAAAAAAAAAAUACAGAAGGGACAUGAGGAUCACCCAUGUCAGGG [EX4 391: Minimal 3]
apparent KD of MS2 coat protein (MS2 coat protein [1]): 69.8 nM
apparent KD of MS2 coat protein (MS2 coat protein [2]): 55.3 nM

UAUAUACAUGAGGAUCACCCAUGUCAGGAUAUGCGCCUAGAAUAUACAUAAGAUACAAGCAGAAGGGACACUAA [JR_Exc001_Sub206]
apparent KD of MS2 coat protein (MS2 coat protein [1]): 57.3 nM
apparent KD of MS2 coat protein (MS2 coat protein [2]): 49.9 nM

AAAAAACAUGAGGAUCACCCAUGUGAGGAUAUCCAAAAGUUAAAUAAAAAGACGAAAAGGAGAAGGCGCAAAAA [Mat - Mod of Eli]
apparent KD of MS2 coat protein (MS2 coat protein [1]): 64.9 nM
apparent KD of MS2 coat protein (MS2 coat protein [2]): 39.4 nM

AAGAAGUGAGGAUAUACAUGAGGAUCACCCAUGUAAAAGAAAGAAAGGGAAAAGAAAAGUAGAAGGCGCAAGAA [Aakheperre Shoshenq V]
apparent KD of MS2 coat protein (MS2 coat protein [1]): 34.1 nM
apparent KD of MS2 coat protein (MS2 coat protein [2]): 44.7 nM

AAAGAACAUGAGGAUCACCCAUGUGAGGAUAUACGAGCGUGAGAAAGAUAAAACGAGCGUAGAAGGCACAAGAA [JR_Exclusion1_Sub4]
apparent KD of MS2 coat protein (MS2 coat protein [1]): 43.4 nM
apparent KD of MS2 coat protein (MS2 coat protein [2]): 49.3 nM

CUGCAGUAAGGAUAUACAUGAGGAUCACCCAUGUAGGAACUUACAGAACGAAACGCAUGUAGAAGGUACCAGAA [Enususge]
apparent KD of MS2 coat protein (MS2 coat protein [1]): 14.2 nM
apparent KD of MS2 coat protein (MS2 coat protein [2]): 14.3 nM
